Measured values as given in US20150329638A1 (Biogen, published 2015).

T1: human DR6 (Death Receptor-6, TNFRSF21) (human, UniProt O75509 42-655)
T1 sequence: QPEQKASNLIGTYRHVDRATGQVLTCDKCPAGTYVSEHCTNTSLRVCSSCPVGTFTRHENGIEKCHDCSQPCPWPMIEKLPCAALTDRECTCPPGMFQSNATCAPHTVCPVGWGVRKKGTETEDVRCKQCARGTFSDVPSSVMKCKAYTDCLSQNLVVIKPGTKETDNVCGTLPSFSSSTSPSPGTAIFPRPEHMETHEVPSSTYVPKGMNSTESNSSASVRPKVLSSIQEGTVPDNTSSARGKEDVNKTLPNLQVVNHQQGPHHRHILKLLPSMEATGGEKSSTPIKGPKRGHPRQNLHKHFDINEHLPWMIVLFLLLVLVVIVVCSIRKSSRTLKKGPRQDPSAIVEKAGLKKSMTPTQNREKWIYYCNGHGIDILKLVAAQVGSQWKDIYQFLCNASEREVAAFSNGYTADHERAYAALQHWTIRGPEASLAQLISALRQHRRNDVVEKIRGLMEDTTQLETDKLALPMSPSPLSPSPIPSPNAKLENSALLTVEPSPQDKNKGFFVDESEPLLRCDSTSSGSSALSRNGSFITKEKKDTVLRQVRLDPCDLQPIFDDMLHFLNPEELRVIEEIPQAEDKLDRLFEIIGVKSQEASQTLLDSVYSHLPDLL

T2: mouse DR6 (mouse, UniProt Q9EPU5 42-655)
T2 sequence: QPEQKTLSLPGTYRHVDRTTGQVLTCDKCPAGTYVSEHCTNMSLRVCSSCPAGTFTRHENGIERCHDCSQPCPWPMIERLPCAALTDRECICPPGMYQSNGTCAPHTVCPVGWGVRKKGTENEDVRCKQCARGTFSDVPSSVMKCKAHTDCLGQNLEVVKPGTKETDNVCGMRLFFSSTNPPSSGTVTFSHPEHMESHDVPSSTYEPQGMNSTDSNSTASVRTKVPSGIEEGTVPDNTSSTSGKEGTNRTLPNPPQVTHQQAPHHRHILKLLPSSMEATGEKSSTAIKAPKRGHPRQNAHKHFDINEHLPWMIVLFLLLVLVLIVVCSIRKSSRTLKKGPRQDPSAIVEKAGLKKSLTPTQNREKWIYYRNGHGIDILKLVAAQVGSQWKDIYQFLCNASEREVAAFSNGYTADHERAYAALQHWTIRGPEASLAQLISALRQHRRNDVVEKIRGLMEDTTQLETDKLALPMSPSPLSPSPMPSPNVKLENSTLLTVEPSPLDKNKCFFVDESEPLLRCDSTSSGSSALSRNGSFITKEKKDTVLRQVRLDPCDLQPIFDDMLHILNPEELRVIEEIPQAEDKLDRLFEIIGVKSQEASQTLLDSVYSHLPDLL

T3: rat DR6 (rat, UniProt D3ZF92 42-655)
T3 construct: Full length rat DR6 expressed on transfected HEK293 cells
T3 sequence: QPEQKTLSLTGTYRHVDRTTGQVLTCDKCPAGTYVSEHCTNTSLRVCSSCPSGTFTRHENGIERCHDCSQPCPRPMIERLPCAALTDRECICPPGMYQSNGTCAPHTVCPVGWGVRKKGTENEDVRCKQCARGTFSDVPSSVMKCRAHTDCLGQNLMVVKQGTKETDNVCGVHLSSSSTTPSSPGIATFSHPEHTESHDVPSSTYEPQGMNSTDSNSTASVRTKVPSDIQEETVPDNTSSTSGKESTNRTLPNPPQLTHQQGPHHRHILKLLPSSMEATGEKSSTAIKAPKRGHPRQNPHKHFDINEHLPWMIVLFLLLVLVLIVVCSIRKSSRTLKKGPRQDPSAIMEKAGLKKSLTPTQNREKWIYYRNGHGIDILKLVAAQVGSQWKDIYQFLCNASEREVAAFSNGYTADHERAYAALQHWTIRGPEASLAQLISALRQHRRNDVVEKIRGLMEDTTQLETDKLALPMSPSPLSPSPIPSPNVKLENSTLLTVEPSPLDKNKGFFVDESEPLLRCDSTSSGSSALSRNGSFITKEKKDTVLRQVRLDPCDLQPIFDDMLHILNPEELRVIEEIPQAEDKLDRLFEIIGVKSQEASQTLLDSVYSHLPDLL


Legend:
[1] = molecular target: T1, human DR6 (Death Receptor-6, TNFRSF21); experiment: cell-based or functional assay
mouse DR6 = molecular target: T2, mouse DR6; experiment: flow cytometry on HEK293 cells transfected with full length DR6
Experimental: Six million HEK293 cells were transfected with 10 ug of plasmid DNA, which encoded full length human, rat, or mouse DR6. Three days after transfection, approximately 50,000 cells in 200 μL of PBS, 1% BSA, 0.1% NaN3 (FACS buffer) were analyzed. Cells were pelleted and resuspended in 150 μL of serial dilutions of anti-DR6 antibodies in FACS buffer. Samples were incubated for 1 hour on ice with occasional agitation and then washed three times. Bound DR6 antibody was visualized with PE-labeled goat F(ab)₂ anti-human Fab (for Dyax Fabs) or anti-mouse IgG specific antibody (for monoclonal antibodies) (Jackson Labs). […] Although both antibodies bind to DR6, the EO4 antibody leads to cell death, whereas 5D10 promotes cell survival. FIG. 5B.

[2] = molecular target: T1, human DR6 (Death Receptor-6, TNFRSF21); experiment: FACS direct binding on transiently transfected HEK293 cells
Experimental: (§1) The apparent Kd of 5D10 and M53-E04 for rat and human DR6 was estimated using transiently transfected HEK293 cells in a FACS direct binding assay. Approximately 50,000 cells in 150 uL of PBS, 1% BSA, 0.1% NaN3 (FACS buffer) were analyzed. Cells were pelleted and resuspended in 150 uL of serial dilutions of the antibodies in FACS buffer. Samples were incubated for 1 hr on ice with occasional agitation and then washed 3 times. Bound antibodies were visualized with PE-labeled goat F(ab)2 anti-human or anti-mouse Fab specific antibody (Jackson Labs).
(§2) The binding affinities of 5D10 or M53-E04 to cyno monkey DR6 were similar to human DR6. A single point mutation (Y93A) was introduced to 5D10 based on the co-crystal structure of DR6-5D10 (FIG. 6).

rat DR6 [3] = molecular target: T3, rat DR6; experiment: as above
Experimental: as §1, §2

rat DR6 [4] = molecular target: T3, rat DR6; experiment: binding to rat DR6 (FIG. 6)

Binder	motor neuron survival following sodium arsenite treatment (cell number) [1] [fold]	binding result (mouse DR6)	EC50 [2] [nM]	EC50 (rat DR6 [3]) [nM]	binding result (rat DR6 [4])
1P5D10.2 (antibody, V domains shown, Murine monoclonal antibody from a hybridoma; also called DR6 antagonist monoclonal antibody 5D10; anti-DR6 antibody 5D10) VH: EVQLVESGGGLVKPGGSLKLSCAASGFTFSDYYMYWVRQTPEKRLEWVATISDGGLYTYYQDSVKGRFTISRDNAKNNLYLQMSSLKSEDTAMYYCAREDDYDGDFYTMDYWGQGTSVTVSS VL: QIVLTQSPAIMSASPGEKVTITCSASSSVSYMHWFQQKPGTSPKLWIYSTSNLASGVPARFSGSGSGTSYSLTISRMEAEDAATYYCQQRSSYPLTFGAGTKLELK	3	binds	0.1	60	
1P5D10.2(Y93A) (antibody, V domains shown, Single point mutant (Y93A, light chain variable domain) of 5D10; also called 5D10Y93A) VH: EVQLVESGGGLVKPGGSLKLSCAASGFTFSDYYMYWVRQTPEKRLEWVATISDGGLYTYYQDSVKGRFTISRDNAKNNLYLQMSSLKSEDTAMYYCAREDDYDGDFYTMDYWGQGTSVTVSS VL: QIVLTQSPAIMSASPGEKVTITCSASSSVSYMHWFQQKPGTSPKLWIYSTSNLASGVPARFSGSGSGTSYSLTISRMEAEDAATYYCQQRSSAPLTFGAGTKLELK					binds
M53-E04 (Fab, V domains shown, The format in the assay (Fab or full IgG) is therefore not certain; also called EO4 antibody; E04 mAb) VH: EVQLLESGGGLVQPGGSLRLSCAASGFTFSNYEMSWVRQAPGKGLEWVSSIYSSGGETLYADSVKGRFTISRDNSKNTLYLQMNSLRAEDTAVYYCARDGAADYWGQGTLVTVSS VL: QSELTQPPSASGTPGQWVTISCSGSTSNIGNNYVYWYQQLPGTAPKLLIYTNNQRPSGVPDRFSGSKSGTSASLAISGLRSEDEADYYCATWDDSLYAPVFGGGTKVTVL		binds	0.05	0.1	
